Patent US20210309732A1 (ELIXIRON IMMUNOTHERAPEUTICS HONG KONG, published 2021)
Changes are numbered by the printed parent chain.

B1: 1D2 SDR mutant HQ105M (antibody, IgG1, V domains shown)
VH: QVQLVQSGAEVKKPGASVKVSCEASGYTFTDKYLHWVRQAPGQGLEWMAWINPKSGGTFYAQNFKGRVTVTRDTSINTAYLELTSLRLDDTSTYYCARGRDYYDMGAADLWGQGTMVTVSS
VL: DIQLTQSPSSLSASVGDRVTITCRASQGINSVLAWYQQKPGKAPKLLLYAASKLESGVPSRFSGSGSGTDYTLTISSLQPEDFGTYYCQQYYSPVRTFGQGTKVEIKR
notes: also called X7 M
B2: 1D2 SDR mutant HQ105S (antibody, IgG1, V domains shown)
VH: B1 VH with M105S
VL: B1 VL
notes: also called X7 S
B3: 1D2 SDR mutant HQ105T (antibody, IgG1, V domains shown)
VH: B1 VH with M105T
VL: B1 VL
notes: also called X7 T
B4: 1D2 SDR mutant HQ105V (antibody, IgG1, V domains shown)
VH: B1 VH with M105V
VL: B1 VL
notes: also called X7 V
B5: 1D2 SDR mutant HQ105W (antibody, IgG1, V domains shown)
VH: B1 VH with M105W
VL: B1 VL
notes: also called X7 W
B6: 1D2 SDR mutant HR100A (antibody, IgG1, V domains shown)
VH: B1 VH with R100A, M105Q
VL: B1 VL
notes: also called X4 A
B7: 1D2 SDR mutant HR100C (antibody, IgG1, V domains shown)
VH: B1 VH with R100C, M105Q
VL: B1 VL
notes: also called X4 C
B8: 1D2 SDR mutant HR100E (antibody, IgG1, V domains shown)
VH: B1 VH with R100E, M105Q
VL: B1 VL
notes: also called X4 E
B9: 1D2 SDR mutant HR100G (antibody, IgG1, V domains shown)
VH: B1 VH with R100G, M105Q
VL: B1 VL
notes: also called X4 G
B10: 1D2 SDR mutant HR100I (antibody, IgG1, V domains shown)
VH: B1 VH with R100I, M105Q
VL: B1 VL
notes: also called X4 I
B11: 1D2 SDR mutant HR100L (antibody, IgG1, V domains shown)
VH: B1 VH with R100L, M105Q
VL: B1 VL
notes: also called X4 L
B12: 1D2 SDR mutant HR100M (antibody, IgG1, V domains shown)
VH: B1 VH with R100M, M105Q
VL: B1 VL
notes: also called X4 M
B13: 1D2 SDR mutant HR100P (antibody, IgG1, V domains shown)
VH: B1 VH with R100P, M105Q
VL: B1 VL
notes: also called X4 P
B14: 1D2 SDR mutant HR100Q (antibody, IgG1, V domains shown)
VH: B1 VH with R100Q, M105Q
VL: B1 VL
notes: also called X4 Q
B15: 1D2 SDR mutant HR100S (antibody, IgG1, V domains shown)
VH: B1 VH with R100S, M105Q
VL: B1 VL
notes: also called X4 S
B16: 1D2 SDR mutant HR100T (antibody, IgG1, V domains shown)
VH: B1 VH with R100T, M105Q
VL: B1 VL
notes: also called X4 T
B17: 1D2 SDR mutant HR100V (antibody, IgG1, V domains shown)
VH: B1 VH with R100V, M105Q
VL: B1 VL
notes: also called X4 V
B18: 1D2 SDR mutant HY102A (antibody, IgG1, V domains shown)
VH: B1 VH with Y102A, M105Q
VL: B1 VL
notes: also called X5 A
B19: 1D2 SDR mutant HY102F (antibody, IgG1, V domains shown)
VH: B1 VH with Y102F, M105Q
VL: B1 VL
notes: also called X5 F
B20: 1D2 SDR mutant HY102G (antibody, IgG1, V domains shown)
VH: B1 VH with Y102G, M105Q
VL: B1 VL
notes: also called X5 G
B21: 1D2 SDR mutant HY102I (antibody, IgG1, V domains shown)
VH: B1 VH with Y102I, M105Q
VL: B1 VL
notes: also called X5 I
B22: 1D2 SDR mutant HY102L (antibody, IgG1, V domains shown)
VH: B1 VH with Y102L, M105Q
VL: B1 VL
notes: also called X5 L
B23: 1D2 SDR mutant HY102N (antibody, IgG1, V domains shown)
VH: B1 VH with Y102N, M105Q
VL: B1 VL
notes: also called X5 N
B24: 1D2 SDR mutant HY102S (antibody, IgG1, V domains shown)
VH: B1 VH with Y102S, M105Q
VL: B1 VL
notes: also called X5 S
B25: 1D2 SDR mutant HY102T (antibody, IgG1, V domains shown)
VH: B1 VH with Y102T, M105Q
VL: B1 VL
notes: also called X5 T
B26: 1D2 SDR mutant HY102V (antibody, IgG1, V domains shown)
VH: B1 VH with Y102V, M105Q
VL: B1 VL
notes: also called X5 V
B27: 1D2 SDR mutant HY102W (antibody, IgG1, V domains shown)
VH: B1 VH with Y102W, M105Q
VL: B1 VL
notes: also called X5 W
B28: 1D2 SDR mutant HY103A (antibody, IgG1, V domains shown)
VH: B1 VH with Y103A, M105Q
VL: B1 VL
notes: also called X6 A
B29: 1D2 SDR mutant HY103D (antibody, IgG1, V domains shown)
VH: B1 VH with Y103D, M105Q
VL: B1 VL
notes: also called X6 D
B30: 1D2 SDR mutant HY103F (antibody, IgG1, V domains shown)
VH: B1 VH with Y103F, M105Q
VL: B1 VL
notes: also called X6 F
B31: 1D2 SDR mutant HY103G (antibody, IgG1, V domains shown)
VH: B1 VH with Y103G, M105Q
VL: B1 VL
notes: also called X6 G
B32: 1D2 SDR mutant HY103H (antibody, IgG1, V domains shown)
VH: B1 VH with Y103H, M105Q
VL: B1 VL
notes: also called X6 H
B33: 1D2 SDR mutant HY103K (antibody, IgG1, V domains shown)
VH: B1 VH with Y103K, M105Q
VL: B1 VL
notes: also called X6 K

Target: T1, recombinant human GM-CSF (human, UniProt P04141 18-144)
T1 construct: also called rhGM-CSF; CSF2
T1 sequence (P04141 18-144 limits assumed): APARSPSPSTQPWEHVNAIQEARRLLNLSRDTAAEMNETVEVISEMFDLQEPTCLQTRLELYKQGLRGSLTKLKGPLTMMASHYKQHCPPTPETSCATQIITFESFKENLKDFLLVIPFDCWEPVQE
Assay: ELISA on coated rhGM-CSF, UBA relative to 1D2
In short: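 Antibody clones carrying SDR point mutants in VH or VL, each paired with the wild-type chain, were expressed in HEK293 cells. Culture media diluted 1:12000 were bound to plates coated with rhGM-CSF at 1 μg/mL for 1 h at room temperature. Detection used HRP anti-human antibody and Amplex Red fluorescence (Ex530/Em590), with UBA = fluorescence signal/dilution factor.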

Binder	binding affinity % of 1D2
B1	148%
B2	134%
B3	133%
B4	155%
B5	68%
B6	76%
B7	89%
B8	92%
B9	125%
B10	80%
B11	69%
B12	94%
B13	101%
B14	57%
B15	72%
B16	93%
B17	74%

Binder	binding affinity % of 1D2
B18	68%
B19	71%
B20	89%
B21	64%
B22	86%
B23	83%
B24	104%
B25	56%
B26	71%
B27	82%
B28	88%
B29	134%
B30	81%
B31	138%
B32	109%
B33	143%
